Data as given in patent publication US20220372167.

T1: murine IGFBP-4 with C-terminal 6His tag, P47879
T1 chain: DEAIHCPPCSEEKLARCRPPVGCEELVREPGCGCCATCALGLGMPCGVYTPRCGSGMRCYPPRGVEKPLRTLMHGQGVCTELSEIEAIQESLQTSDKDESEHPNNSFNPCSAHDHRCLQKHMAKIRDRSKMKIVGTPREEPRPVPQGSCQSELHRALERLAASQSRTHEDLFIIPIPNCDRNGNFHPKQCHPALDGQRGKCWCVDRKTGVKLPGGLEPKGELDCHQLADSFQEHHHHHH

T2: murine IGFBP-2 with C-terminal 6His tag, P47877
T2 chain: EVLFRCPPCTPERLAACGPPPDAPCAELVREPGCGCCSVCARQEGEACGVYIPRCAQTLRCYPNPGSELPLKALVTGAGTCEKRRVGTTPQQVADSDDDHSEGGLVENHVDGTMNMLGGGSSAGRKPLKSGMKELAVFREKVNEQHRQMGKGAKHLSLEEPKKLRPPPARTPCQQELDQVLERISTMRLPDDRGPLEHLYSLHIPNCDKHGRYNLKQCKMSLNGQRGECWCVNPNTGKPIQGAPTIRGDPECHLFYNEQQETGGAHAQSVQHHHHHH

T3: murine IGFBP-5 with C-terminal 6His tag, Q07079
T3 chain: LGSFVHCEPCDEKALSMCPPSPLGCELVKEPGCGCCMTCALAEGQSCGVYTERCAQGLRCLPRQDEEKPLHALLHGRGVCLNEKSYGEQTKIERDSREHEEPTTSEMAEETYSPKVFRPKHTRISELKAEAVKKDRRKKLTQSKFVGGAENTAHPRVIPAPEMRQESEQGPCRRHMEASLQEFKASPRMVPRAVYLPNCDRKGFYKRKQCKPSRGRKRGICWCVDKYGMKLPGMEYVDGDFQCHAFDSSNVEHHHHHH

T4: human IGFBP-2 with N-terminal 6His tag, P18065
T4 chain: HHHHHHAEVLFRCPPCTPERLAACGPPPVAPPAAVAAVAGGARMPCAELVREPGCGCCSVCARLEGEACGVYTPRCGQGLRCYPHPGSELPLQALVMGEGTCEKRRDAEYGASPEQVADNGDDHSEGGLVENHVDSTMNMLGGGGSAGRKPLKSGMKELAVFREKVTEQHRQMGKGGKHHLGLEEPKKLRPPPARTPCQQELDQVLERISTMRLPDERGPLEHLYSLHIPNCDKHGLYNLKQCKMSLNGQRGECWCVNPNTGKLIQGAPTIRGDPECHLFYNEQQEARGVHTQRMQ

T5: human IGFBP-4 with N-terminal 6His tag, P22692
T5 chain: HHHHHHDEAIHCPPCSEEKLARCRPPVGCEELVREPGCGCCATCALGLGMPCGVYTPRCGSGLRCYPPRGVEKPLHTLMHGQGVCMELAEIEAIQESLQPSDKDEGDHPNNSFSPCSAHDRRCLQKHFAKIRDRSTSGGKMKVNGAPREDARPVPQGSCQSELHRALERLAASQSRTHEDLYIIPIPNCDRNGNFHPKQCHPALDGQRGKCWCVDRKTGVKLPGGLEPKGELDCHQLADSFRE

B1: murine PAPP-A protein with C-terminal C-myc and Flag tags (protein)
chain: RGAEEPSPPSRALYFSGRGEQLRLRADLELPRDAFTLQVWLRAEGGQKSPAVITGLYDKCSYTSRDRGWVMGIHTTSDQGNRDPRYFFSLKTDRARKVTTIDAHRSYLPGQWVHLAATYDGRLMKLYMNGAQVATSAEQVGGIFSPLTQKCKVLMLGGSALNHNFRGHIEHFSLWKVARTQREIVSDMETRGLHTPLPQLLLQENWDNVKRTWSPMKDGNSPQVEFSNAHGFLLDTNLEPPLCGQTLCDNTEVISSYNQLPSFRQPKVVRYRVVNIYDDHHENPTVSWQQIDFQHQQLAEAFQHYNISWELEVLNINSSSLRHRLILANCDISKIGDEKCDPECNHTLTGHDGGDCRQLRYPAFMKKQQNGVCDMDCNYERFNFDGGECCDPDITDVTKTCFDPDSPHRAYLDVNELKNILRLDGSTHLNIFFANSSEEELAGVATWPWDKEALMHLGGIVLNPSFYGIPGHTHTMIHEIGHSLGLYHIFRGISEIQSCSDPCMETEPSFETGDLCNDTNPAPKHKFCGDPGPGNDTCGFHGFFNTPYNNFMSYADDDCTDSFTPNQVSRMHCYLDLVYQSWQPSRKPAPVALAPQVVGHTMDSVMLEWFPPIDGHFFERELGSACDLCLEGRILVQYAFNASSPMPCGPSGHWSPREAEGHPDVEQPCKSSVRTWSPNSAVNPHTVPPACPEPQGCYLELEFRYPLVPESLTIWVTFVSSDWDSSGAVNDIKLLTISGKNISLGPQNVFCDIPLTIRLRDVGEEVYGIQIYTLDEHLEIDAAMLTSTVDSPLCLQCKPLQYKVLRDPPLLEDVASLLHLNRRFMDTDLKLGSVYQYRIITISGNEESEPSPAAIYTHGSGYCGDGVIQKDQGEECDDMNKVNGDGCSLFCKQEVSFNCIDEPSRCYFHDGDGMCEEFEQKTSIKDCGVYTPQGFLDQWASNASVSHQDQQCPGWVVIGQPAASQVCRTKVIDLSEGISQHAWYPCTITYPYYHLPQTTFWLQTYFSQPMVAAAVIIHLVTDGTYYGDQKQETISVQLLDTKDQSHDLGLHVLSCRNNPLIIPVVHDLSQPFYHSQAVHVSFSSPLVAISGVALRSFDNFDPVTLSSCQRGETYSPAEQSCVHFACQAADCPELAVGNASLNCSSNHHYHGAQCTVSCQTGYVLQIQRDDELIKSQVGPSITVTCTEGKWNKQVACEPVDCGIPDHHHVYAASFSCPEGTTFGRRCSFQCRHPAQLKGNNSFLTCMEDGLWSFPEALCELMCLAPPPVPNADLQTARCRENKHKVGSFCKYKCKPGYHVPGSSRKSKKRAFKTQCTQDGSWQEGTCVPVTCDPPPPKFHGLYQCTNGFQFNSECRIKCEDSDASQGRGSNIIHCRKDGTWSGSFHVCREMQGQCSAPNQLNSNLKLQCPDGYAIGSECAISCLDHNSESIILPVNLTVRDIPHWMNPTRVQRIVCTAGLQWYPHPALIHCVKGCEPFMGDNYCDAINNRAFCNYDGGDCCTSTVKTKKVTPFPMSCDLQNDCACRDPEAQEHNRKDLRGYSHG
B2: human PAPP-A protein with C-terminal C-myc and Flag tags (protein)
chain: EARGATEEPSPPSRALYFSGRGEQLRVLRADLELPRDAFTLQVWLRAEGGQRSPAVITGLYDKCSYISRDRGWVVGIHTISDQDNKDPRYFFSLKTDRARQVTTINAHRSYLPGQWVYLAATYDGQFMKLYVNGAQVATSGEQVGGIFSPLTQKCKVLMLGGSALNHNYRGYIEHFSLWKVARTQREILSDMETHGAHTALPQLLLQENWDNVKHAWSPMKDGSSPKVEFSNAHGFLLDTSLEPPLCGQTLCDNTEVIASYNQLSSFRQPKVVRYRVVNLYEDDHKNPTVTREQVDFQHHQLAEAFKQYNISWELDVLEVSNSSLRRRLILANCDISKIGDENCDPECNHTLTGHDGGDCRHLRHPAFVKKQHNGVCDMDCNYERFNFDGGECCDPEITNVTQTCFDPDSPHRAYLDVNELKNILKLDGSTHLNIFFAKSSEEELAGVATWPWDKEALMHLGGIVLNPSFYGMPGHTHTMIHEIGHSLGLYHVFRGISEIQSCSDPCMETEPSFETGDLCNDTNPAPKHKSCGDPGPGNDTCGFHSFFNTPYNNFMSYADDDCTDSFTPNQVARMHCYLDLVYQGWQPSRKPAPVALAPQVLGHTTDSVTLEWFPPIDGHFFERELGSACHLCLEGRILVQYASNASSPMPCSPSGHWSPREAEGHPDVEQPCKSSVRTWSPNSAVNPHTVPPACPEPQGCYLELEFLYPLVPESLTIWVTFVSTDWDSSGAVNDIKLLAVSGKNISLGPQNVFCDVPLTIRLWDVGEEVYGIQIYTLDEHLEIDAAMLTSTADTPLCLQCKPLKYKVVRDPPLQMDVASILHLNRKFVDMDLNLGSVYQYWVITISGTEESEPSPAVTYIHGRGYCGDGIIQKDQGEQCDDMNKINGDGCSLFCRQEVSFNCIDEPSRCYFHDGDGVCEEFEQKTSIKDCGVYTPQGFLDQWASNASVSHQDQQCPGWVIIGQPAASQVCRTKVIDLSEGISQHAWYPCTISYPYSQLAQTTFWLRAYFSQPMVAAAVIVHLVTDGTYYGDQKQETISVQLLDTKDQSHDLGLHVLSCRNNPLIIPVVHDLSQPFYHSQAVRVSFSSPLVAISGVALRSFDNFDPVTLSSCQRGETYSPAEQSCVHFACEKTDCPELAVENASLNCSSSDRYHGAQCTVSCRTGYVLQIRRDDELIKSQTGPSVTVTCTEGKWNKQVACEPVDCSIPDHHQVYAASFSCPEGTTFGSQCSFQCRHPAQLKGNNSLLTCMEDGLWSFPEALCELMCLAPPPVPNADLQTARCRENKHKVGSFCKYKCKPGYHVPGSSRKSKKRAFKTQCTQDGSWQEGACVPVTCDPPPPKFHGLYQCTNGFQFNSECRIKCEDSDASQGLGSNVIHCRKDGTWNGSFHVCQEMQGQCSVPNELNSNLKLQCPDGYAIGSECATSCLDHNSESIILPMNVTVRDIPHWLNPTRVERVVCTAGLKWYPHPALIHCVKGCEPFMGDNYCDAINNRAFCNYDGGDCCTSTVKTKKVTPFPMSCDLQGDCACRDPQAQEHSRKDLRGYSHG

Experiments:
[1] = biological target: T1, murine IGFBP-4 with C-terminal 6His …
[2] = biological target: T2, murine IGFBP-2 with C-terminal 6His …
[3] = biological target: T3, murine IGFBP-5 with C-terminal 6His …
[4] = biological target: T4, human IGFBP-2 with N-terminal 6His tag, …
[5] = biological target: T5, human IGFBP-4 with N-terminal 6His tag, …
[6] = biological target: human IGFBP-5 with N-terminal 6His tag, P24593
[7] = biological target: five representative anti-PAPP-A antibodies generated from yeast display libraries

Sequence of human IGFBP-5 with N-terminal 6His tag, P24593 (P24593 other isoform, or with tags, fused parts or gaps): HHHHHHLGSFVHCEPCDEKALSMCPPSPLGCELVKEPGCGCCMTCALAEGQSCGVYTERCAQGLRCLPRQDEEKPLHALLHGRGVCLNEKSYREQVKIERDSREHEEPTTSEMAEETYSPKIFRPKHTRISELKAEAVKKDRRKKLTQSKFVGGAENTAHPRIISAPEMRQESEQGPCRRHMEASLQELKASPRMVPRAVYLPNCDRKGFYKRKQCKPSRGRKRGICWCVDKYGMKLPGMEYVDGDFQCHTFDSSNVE

| Protein | enzymatic cleavage of IGFBP by PAPP-A [1] | enzymatic cleavage of IGFBP by PAPP-A [2] | enzymatic cleavage of IGFBP by PAPP-A [3] | enzymatic cleavage of IGFBP by PAPP-A [4] | enzymatic cleavage of IGFBP by PAPP-A [5] | enzymatic cleavage of IGFBP by PAPP-A [6] | PAPP-A cleavage of human IGFBP4 at one antibody concentration (50 nM) [7] |
| --- | --- | --- | --- | --- | --- | --- | --- |
| B1 | cleavage of both human and murine IGFBP-4 and IGFBP-2 by PAPP-A | cleavage of both human and murine IGFBP-4 and IGFBP-2 by PAPP-A | PAPP-A's ability to cleave IGFBP-5 | – | – | – | – |
| B2 | – | – | – | cleavage of both human and murine IGFBP-4 and IGFBP-2 by PAPP-A | cleavage of both human and murine IGFBP-4 and IGFBP-2 by PAPP-A | PAPP-A's ability to cleave IGFBP-5 | the five representative antibodies effectively blocking cleavage of human IGFBP4 |
